Results: the domain aggregation screens of Martell et al. (2025)

Assay: soluble fraction after stress (log2 fold change); higher = more stays soluble; pooled small domains, quantitative proteomics
Conditions: stress: pH 4
Method in brief: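 Aggregation propensity here comes from the fold change in the soluble amount of each small protein domain after acid stress, measured in pooled custom libraries by high-throughput quantitative proteomics. The acid stress was pH 4. On the log2 scale, higher values mean more of the domain stayed soluble.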

Sequence: HMKGISRVTMELIIDALKKETEPRTVQWIAEKTGLATQTTYRYLQYMVSEQTVEALNVYGKVVSLKAK
- soluble fraction (log2): 0.153

Sequence: HMKGKWKPIILWQLSKAPQSLSGLRHSIAGISQKMLIQHLNELIHFGFVVRTTFEGYPLKVEYDLTDRGR
- soluble fraction (log2): -0.251

Sequence: HMKGLDAAVVDLFKSKGASIVFAGNRLSLSGEVADQATKDELLAKAKAILASLGASVSLDDKLMVKGAKAS
- soluble fraction (log2): 0.175

Sequence: HMKGMIKVASMSLGADLGLYSRHLKYLGIVHRVVEESGGQSVYIQKLNDLHTAKESLELYLKNELKI
- soluble fraction (log2): -0.476

Sequence: HMKGQNRSEITAGARVKVVQKQDQRTGALTEGIVRDILTRSPHHPHGIKVRLESGIVGRVKDVL
- soluble fraction (log2): -0.287

Sequence: HMKGSIMIETILKELKKNNKGFNFLLEKFDISEDELMKIINDLIHDKKVFLNSNNKYEIVSD
- soluble fraction (log2): -0.958

Sequence: HMKGTVLAPGIILNADDQRFTYLQEDVASVAKDGAAIVLKQGDEVDFIADGQTAKQIYLTKT
- soluble fraction (log2): 0.0738

Sequence: HMKGVPGIGDYVKLSGGSTVGKVLSISGKKAEVAFGLLRTTTELSKLEKVRKPKELLQSGVSS
- soluble fraction (log2): ≥ 0.43

Sequence: HMKGVTVDGDNITVDGEKQTLISVNKNLDGDVVSYTYRTADGKLRTSRNVEVAQEINKQQLLKSIDAQ
- soluble fraction (log2): 0.0219

Sequence: HMKGWPDREQAEKIWQQGIDYAIEHHTMSPQIVKEYIFHTQGIARSAALIAARLPDMDTEKAYVLGLLHD
- soluble fraction (log2): 0.0199

Sequence: HMKIAEALNLRGDADSYERQEAIWLLEHIVGMSALELKYRGEQDLTEDQLQQYRSGLQRLEQGEPLAYVIG
- soluble fraction (log2): -0.73

Sequence: HMKIDLKQIEGVLDELAKVKGSLITILQKTQETYGYLPKEAIIYISERTGIAESEIMGVATFYTQFRL
- soluble fraction (log2): -0.779

Sequence: HMKIDLTPQEEKIYSVLETELTLDEIIMKTSIKAGEALAILMDLELKKLVASVAGGKYRRKA
- soluble fraction (log2): 0.157

Sequence: HMKIEETLGKTAQVYIPIPQYLSGIGKVTLSVRGSLRELDAMTEEEKIPSNTIVRIVKVQDQVLFVKRA
- soluble fraction (log2): -0.0641

Sequence: HMKIHNSIREITDFDRKQNSNIPSDAKYRIVFYTPQGNKTIIPEELQGLQYYRSKELAEIALNKKLNSN
- soluble fraction (log2): 0.0952

Sequence: HMKILKQLEAIIEKEGLNESAKQFYLREISELDKEKQQEIINLVDKMEQAGFKNNLASAFSEVTEDIPQF
- soluble fraction (log2): -0.518

Sequence: HMKILNYQSLVGKKGITKSMLRPAGIVEIEGRRYDVVTRGEFIEPGKMITVDEVQGNRIIVQIERE
- soluble fraction (log2): 0.189

Sequence: HMKIPIIYQPLKNAKRIKIYIPYELKELRTIFKKINTTFWHPNQKLWSIIYTQENVALIKNLFGKNYKIVN
- soluble fraction (log2): -0.0514

Sequence: HMKIQEVDYSTFLNMLNEKSIAQVEIQDNQIAFNSNQEGNKQIYVTGRIEEDTELVNRLQAAGVQFSRV
- soluble fraction (log2): -0.638

Sequence: HMKIRIIKTASNAKAVQIVSYKNNKRIVLQHIGSAHTDETLNDLKILAEEWIKDYNHQLSIF
- soluble fraction (log2): -0.671

Sequence: HMKISDLPAAQVYREIVHAWPKAAAYADLAPINNGGMQRWRDVVHEWVLRGYNPANLRGMLEWYKAGIPTR
- soluble fraction (log2): -0.132

Sequence: HMKISDMIETNLKFLRGKHSISQAELAESLGIPRTTLSAYERGFVEPNIELMLKMAKYFNVSLDDLIAYN
- soluble fraction (log2): -1.3

Sequence: HMKISQSRKAGKLVLESELKRGGVSLDQYRGGRMSRILELIGVKSLNELLTDLGTGKKTGALVAERFFSGL
- soluble fraction (log2): -0.036

Sequence: HMKITFNPVSSGRLDIILAEKTGYTRSYVKQLVEKQAVTINGEAAKKSGQNVKAGDEIALDEP
- soluble fraction (log2): 0.149

Sequence: HMKITIDSVERDETFRLIWGTGWKPKNKIQELAAIQAKKNGLGRMNEVAGLAAWRGIWQQVAEQVAQEVL
- soluble fraction (log2): -0.843

Sequence: HMKITKIWFTADHIFGRDEEGKEYSQSLLWYPKLSAASDEERSQYTFGYDGIHWRSLDEDISFESF
- soluble fraction (log2): -1.52

Sequence: HMKIVFGHVKWFDIDKGFGFLVLEDEGGDVLLHANVLKNFGRTSVSEDTKIEFEFLETDKGRQVSTIYNIL
- soluble fraction (log2): -2.19

Sequence: HMKIVQDIAFSDFLNEVEKDNVLDVNIKGDLINGNLADGRKFKTYTPYDPNLIEKLSNKNVTINVEPYN
- soluble fraction (log2): 0.00986

Sequence: HMKKAENEKLNIPYDVTEFLASSIKDDIRMMEGAMVKLLALSSLTKQDITQSLAKRVIQDVLGSSA
- soluble fraction (log2): -0.451

Sequence: HMKKAMIISTKRGTPAAELDKIIREFEAKGLSVTMIRGTDYNVFGLVGDTTVIDEKQVRANPYVENVQRV
- soluble fraction (log2): -0.325

Sequence: HMKKATYDVMVREALVSFKKKGATLQSIKKKIKADYAIEANATAVKSAIQKGMEAGSIRKSYDLYFFMD
- soluble fraction (log2): 0.15

Sequence: HMKKDDLKQINGIGTTIEKKLNEIDIYNFYQISNLSKEDIETISEKIKTFPGKIERDNWVGQAQELL
- soluble fraction (log2): -0.844

Sequence: HMKKIFIDAPLDTMITIPKDTTHHLLTVFRHKMEKPVLVGGSDGRTGVYQIQDVVDGEASAKLVGDIQ
- soluble fraction (log2): 0.318

Sequence: HMKKISAKQQQILDYISSYSLEHGYPPSVREIGAEMGLRSPSTVHAHLKKLQEAGYLEPNEHKSRALTP
- soluble fraction (log2): -0.0896

Sequence: HMKKITTANPLDINRATLAQLDTLPGIGPVTAERIIAYRSKVGRINSLDELKKISGLGGMKFEEIKPLLRV
- soluble fraction (log2): -0.126

Sequence: HMKKKLPRYLQEQKYGNGMVFYRYNPTARYIDEGIVTRTNLGSDLSIAKKKANEFNKLIDAFLQQQSE
- soluble fraction (log2): -0.0245

Sequence: HMKKMSFKEAFLKYVEIKDNPYNMESVKMLVSLQPLIVKAYSILGVDKVRRLNYVKTKIQDAIINGD
- soluble fraction (log2): 0.0648

Sequence: HMKKNLELGLLPHEVKSILGEPDFIDTITDIDGIRYDMWSYTKLNVTKRLYFEDLFLVRMEE
- soluble fraction (log2): -1.42

Sequence: HMKKNNTTPIPKTLNYVNIKGLSNEAVERLNKHKPSTLGQASRLEGITPAATSLISIAIKKNQLLEKAES
- soluble fraction (log2): 0.123

Sequence: HMKKPAERRKELVDAAAHLFAEKGYENTSVRDILDAVGGAPGMFYYYFKSKQDIYVAVMEDF
- soluble fraction (log2): -1.1

Sequence: HMKKPANLISEDRMVEVLYDVIIINTAKGVNKQLLQNNINNPLNYIYRSHGIDSLQFAESNAYYTS
- soluble fraction (log2): -0.798

Sequence: HMKKSGFFSAGDRIQLTDNKGRQYSFNITEGKEFHTHQGFIKHDDLIGMPEGSVVSINSTTGVVQKFMAF
- soluble fraction (log2): -0.584

Sequence: HMKKSIRIFELMKAKVAAEIFDQMILEGKIEDVFDIIVRLKDSNVSNIMKTMSVENSSRLVQKLERYNKD
- soluble fraction (log2): -0.626

Sequence: HMKKVRIPDDPEEAYRKALKTAMNIVGYKDNTEFTLREKLSERGYSGETVDAVAEFMKSKGYV
- soluble fraction (log2): 0.00228

Sequence: HMKKVTMQDIANILNISRVTVWKVLNNQPGVSKQLRDQILLTAKETGYLKPGQEAEAYLEENNIYFEG
- soluble fraction (log2): -0.344

Sequence: HMKKYDIKEAQEIAEINRIPGLVTTSHGRRVYFDPKIMQYVSEEQIVKKYGQKTVKMLDQWYVSNILNK
- soluble fraction (log2): 0.419

Sequence: HMKKYLIIDAANEKIIFKIIDNNKTYTNDYENSRKNFDRFAVLLFNFLNKNMISFDTIDKAL
- soluble fraction (log2): -0.19

Sequence: HMKLARGEFEIMAKFIKEISGISLEQNKTYLIESRLSDLAESEGVKTFSDFFFKAKFNKILKEKIIDAI
- soluble fraction (log2): -0.957

Sequence: HMKLHFTINGVHYTWYKQFIRGIQIRELGNIPREDELYLDLPDGWKDDFIEDDEIVDLARPGVEHFISRAK
- soluble fraction (log2): 0.321

Sequence: HMKLIIVPNLVGQSRRSVEISLQQIGLRIDTVYTEFNPDYPKGTVAWQFPKSGDHIKKGMGLQITVSQG
- soluble fraction (log2): 0.22

Sequence: HMKLINEDLNNEIVFEENKVNLLVIENKKKFVQFIQEIIKQINGDEGKFSLFDINTELKIHDKIDII
- soluble fraction (log2): -0.0802

Sequence: HMKLIPLTDMRGQLRSGAPLPWGVRDAQGNLLLGKGHVIASDDMLEALLARGMFVDAEEAKAARG
- soluble fraction (log2): 0.105

Sequence: HMKLISVAVMRASDAAEIAGGTDSKTLMYRAGLGLFQSWDWHGKIDIVTGSGNNAGDGYVLALLL
- soluble fraction (log2): -0.548

Sequence: HMKLNKRQYAYQVIRSRILDGTYVPGQRIIIDQIAKEVNSSHIPVREAIHQLESEQLIDYEPNIGAIVKG
- soluble fraction (log2): 0.181

Sequence: HMKLSALRDKIKEHLLRQIQNGELQVGKTINLAALSRVTGISVTPIREALTQLEQAQVIQAVPNRGFVVA
- soluble fraction (log2): 0.184

Sequence: HMKLSIGGTIEKLRRNKGLSHQQLANALGVTPDTVEKWEINAAYPDITLLSPIARLLGTTLDALLMF
- soluble fraction (log2): -0.828

Sequence: HMKLSKLTKPELDEIFRNANFTEEEEKVFWLLARGKSLEQISAKTFLPIATVNRRVKSIKDKIG
- soluble fraction (log2): 0.34

Sequence: HMKLTKPKLIQLIHIAKSKLNMDELSYRVLLDNLTGKTSTTKMTVGELLKVYESMKDKGFKPQV
- soluble fraction (log2): 0.104

Sequence: HMKLTTRQTEIINIVKAEQPISGEKIAQNLGLSRATLRNDLSILTMTGLLDAKPKVGYFYTGQ
- soluble fraction (log2): 0.0805

Sequence: HMKLVESALSILEEAVDRDFHGNLGDAARYFDIPYQTIYSWLKSRKRVPSLRALEPVLEKLGVSFTT
- soluble fraction (log2): -0.479

Sequence: HMKLVTIPNVIGKTKEDAMKTLKDLGVTVTVETKESEKDDGTVIAQSKAEGTKLTAGENVTITVSKKKK
- soluble fraction (log2): -0.487

Sequence: HMKMATITKRTNPSGAVVYRAQVRVKREGYPPYSESRTFSKKSLATEWAKRREFEIETNPDLLFN
- soluble fraction (log2): 0.0738

Sequence: HMKMLEINDNDSVGLKNLKTQYNHNQKVIENFQLEINKVINDGELPDKYLLDGMEKYQKLNMQIMSTIEKQ
- soluble fraction (log2): 0.221

Sequence: HMKMPNGYGSVYKLSGNRRKPWAARVTDGWVNDTKTKKSKQKYKFIGFYETRKEALLALADYNANP
- soluble fraction (log2): 0.22

Sequence: HMKMSLKENLLELLQKSSGEFLSGERAAETLGVSRTAVWKAVTSLKNEGYNIESVTNRGYRFS
- soluble fraction (log2): 0.395

Sequence: HMKNANGYGSITKLKGNRRKPYMVRITVGRDENGFPIRKVLGYYSSKANAVAALSDYNREPYDI
- soluble fraction (log2): -0.281

Sequence: HMKNENSLLVSRLAEEKIINRAKLVLMEYLKLSEPQAHRYIEKQAMDLQISRAEVAARVLETYE
- soluble fraction (log2): 0.101

Sequence: HMKNEVENLSYMINRIIEYRDLNNLSNKNLANKIGISEALLSYILNGRRKLSKEIQRKIALFLLND
- soluble fraction (log2): -0.337

Sequence: HMKNFAPVWGEEGAEFGKEVDTGFRLRIVEKEKDVNDLFEVIQKHTIQSQWKPGSTGTESIYKRI
- soluble fraction (log2): -1.35
